The source of these data is article PMC12510028, “A biophysical and molecular characterization of the interaction between the Alzheimer risk factor BIN1 and the neuronal scaffold protein p140Cap” (The Journal of Biological Chemistry, 2025).

The experiment concerns p140Cap. Description: GST pull-down from mouse brain homogenate, p140Cap captured. The format is binding. As to conditions: percent pulldown relative to input, two independent experiments, unpaired t test p = 0.0035. Here is the method:
For these experiments, we prepared glutathione S-transferase (GST) control and GST-tagged BIN1-SH3 domain fusion proteins coupled to glutathione-Sepharose and incubated them with mouse brain homogenates to capture bound proteins. Western blot analysis confirmed that p140Cap from the brain extract bound specifically to the BIN1-SH3 fusion protein, but not to the GST control (Fig. 7A).
To further investigate the contributions of electrostatic interactions in BIN1 SH3 domain–mediated protein binding, we conducted GST pull-down assays with mutant BIN1 SH3 domain constructs that lacked charged residues. […]
We used a previously published method with some modifications ([22]). […] The samples were analyzed by immunoblotting with antibodies against total tau (Dako #A0024; 1:1000) and p140Cap (Defilippi’s lab mAb; 1:2000) ([44]). After incubation with infrared dye–conjugated secondary antibodies, signals were recorded using the Odyssey infrared imaging system (LI-COR Biosciences) and quantified with ImageStudio6.0. The % GST pulldown was calculated by comparing signal intensities of p140Cap or tau in the input (10 μg) with the corresponding pull-down signal intensity from 0.5 mg protein and then multiplying by 100.

B1: BIN1-SH3 fusion protein: GST-tagged WT human BIN1-SH3 domain fusion protein coupled to glutathione-Sepharose (protein)
chain: GFMFKVQAQHDYTATDTDELQLKAGDVVLVIPFQNPEEQDEGWLMGVKESDWNQHKELEKCRGVFPENFTERVP
modifications: left off: 6xHis, N-terminal, state not stated | GST, N-terminal, kept
notes: GST-tagged WT human BIN1-SH3 domain fusion protein coupled to glutathione-Sepharose
B1: the “fold more p140Cap captured than tau” value was roughly 9.4 fold.
